Measured values as given in doi:10.1101/2021.12.06.471490 (bioRxiv, 2021).

Biological target: yeast tubulin heterodimer, Tub1-WT (internal 6X-His) with Tub2 (S. cerevisiae (budding yeast), UniProt P09733 1-447; P02557 1-457)
Assay: pull-down

Chain of yeast tubulin heterodimer, Tub1-WT (internal 6X-His) with Tub2 (P09733 whole entry, chain 1 of 2): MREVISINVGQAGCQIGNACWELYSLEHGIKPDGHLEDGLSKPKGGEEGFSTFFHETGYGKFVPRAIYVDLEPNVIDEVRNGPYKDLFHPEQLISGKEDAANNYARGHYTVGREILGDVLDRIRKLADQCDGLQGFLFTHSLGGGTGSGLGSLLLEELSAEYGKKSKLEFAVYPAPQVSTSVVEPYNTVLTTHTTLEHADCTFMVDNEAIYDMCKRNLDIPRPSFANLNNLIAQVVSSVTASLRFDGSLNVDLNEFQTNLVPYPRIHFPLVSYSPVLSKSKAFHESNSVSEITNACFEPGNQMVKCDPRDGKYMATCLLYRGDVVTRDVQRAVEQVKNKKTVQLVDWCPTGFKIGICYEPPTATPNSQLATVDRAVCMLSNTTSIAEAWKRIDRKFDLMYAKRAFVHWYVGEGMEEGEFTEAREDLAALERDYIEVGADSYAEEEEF
Chain of yeast tubulin heterodimer, Tub1-WT (internal 6X-His) with Tub2 (P02557 whole entry, chain 2 of 2): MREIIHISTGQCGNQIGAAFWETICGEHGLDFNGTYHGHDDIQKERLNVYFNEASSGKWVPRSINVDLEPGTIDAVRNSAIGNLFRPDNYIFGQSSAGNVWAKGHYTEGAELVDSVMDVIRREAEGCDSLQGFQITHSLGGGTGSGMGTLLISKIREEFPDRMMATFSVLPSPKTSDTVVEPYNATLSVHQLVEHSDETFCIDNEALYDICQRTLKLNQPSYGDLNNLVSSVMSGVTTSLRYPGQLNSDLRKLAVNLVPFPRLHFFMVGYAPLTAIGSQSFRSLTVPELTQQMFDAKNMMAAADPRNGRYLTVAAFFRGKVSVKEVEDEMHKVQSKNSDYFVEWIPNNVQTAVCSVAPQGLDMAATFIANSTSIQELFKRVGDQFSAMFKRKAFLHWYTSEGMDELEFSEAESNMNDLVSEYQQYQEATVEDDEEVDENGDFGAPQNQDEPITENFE

B1: GST-TOG1/2 (the two TOG domains of Stu2 fused to a GST tag; Stu2 1-590) (domain or fragment, S. cerevisiae (budding yeast), UniProt P46675 1-590, looked up)
chain: MSGEEEVDYTTLPLEERLTYKLWKARLEAYKELNQLFRNSVGDISRDDNIQIYWRDPTLFAQYITDSNVVAQEQAIVALNSLIDAFASSSLKNAHNITLISTWTPLLVEKGLTSSRATTKTQSMSCILSLCGLDTSITQSVELVIPFFEKKLPKLIAAAANCVYELMAAFGLTNVNVQTFLPELLKHVPQLAGHGDRNVRSQTMNLIVEIYKVTGNNSDLLEEILFKKLKPIQVKDLHKLFAKVGDEPSSSKMLFEWEKRELEKKRSQEEEARKRKSILSNDEGEYQIDKDGDTLMGMETDMPPSKQQSGVQIDTFSMLPEETILDKLPKDFQERITSSKWKDRVEALEEFWDSVLSQTKKLKSTSQNYSNLLGIYGHIIQKDANIQAVALAAQSVELICDKLKTPGFSKDYVSLVFTPLLDRTKEKKPSVIEAIRKALLTICKYYDPLASSGRNEDMLKDILEHMKHKTPQIRMECTQLFNASMKEEKDGYSTLQRYLKDEVVPIVIQIVNDTQPAIRTIGFESFAILIKIFGMNTFVKTLEHLDNLKRKKIEETVKTLPNFSIASGSTHSTIETNKQTGPMENKFLLK
binding result: binds
